Test: yeast display, Sf9 membrane polyspecificity reagent, FACS + sequencing; frameworks hold sequencing errors
Method in brief: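 A nanobody's polyreactivity label depends on the gate it was sorted from. Yeast display cells were stained with 10% biotinylated, detergent-solubilized Sf9 membrane reagent for 1 hour at 4 °C, enriched on streptavidin microbeads and sorted by FACS. The low and high (top ~1%) gates were set on anti-HA fluorescence for expression and streptavidin fluorescence for reagent binding.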

Sequence: QVQLVESGGGLFQAGGSLRLSCAASGSTFRHYDMAWYRQAPGKERELVAVISWGGTSTYYADSVKGRFTISRDNAKNTVYLQMHSLKPEDTGVYYCNKAYFPIFKGYEMYYWGQGTQVTVST
- polyreactivity (PSR sort gate): low polyreactivity

Sequence: QVQLVESGGGLFQAGGSLRLSCAASGSTFSPNGMGWYRQSPGKERELVAVISTTGGGTYYADSVKVRFTISRDNAKNTVYLQLNSLKPEDTAVYYCAADVWTYSWSWRKYVEFNYWGQGTQVTVSS
- polyreactivity (PSR sort gate): high polyreactivity

Sequence: QVQLVESGGGLFQAGGSLRLSCAASGSTFYIYAMGWYRQAPGKEREFFAAIDFSGSSTYADSEKGRFTISRDNAKNTVYVQMNSLKPEDTAVYYCAAYQIYQYDGPYDYWGQGTQVTVSS
- polyreactivity (PSR sort gate): low polyreactivity

Sequence: QVQLVESGGGLFQAGGSLRLSCAASGSTLAGYTMGWYRQAPGKERELVASISFTGGSTYYADSVKGRFTISRDNAKNTVYLQMNSLKPEDTAVYYCAAGTWQYYFLYDTYRRYYYWGQGTQVTGSS
- polyreactivity (PSR sort gate): high polyreactivity

Sequence: QVQLVESGGGLFQAGGSLRLSCAASGSTLVKNAMGWYRQAPGKERELVAAIDYNDDITYYADSVKGRFTISRDTAKNTVYLQMNSLKPEDTAVYYCAAEPYAGPELDYWGQGTQVTVSS
- polyreactivity (PSR sort gate): high polyreactivity

Sequence: QVQLVESGGGLFQAGGSLRLSCAASGTTFVRYAMGCYRQAPGKDRQLVAAISSSGATTYYADSVKGRFTISRDNAKNTVYLQMNSLKPEDTEVYYCARLYVKRHGYWGQGSQVTVSS
- polyreactivity (PSR sort gate): high polyreactivity

Sequence: QVQLVESGGGLFQAGGSLRLSCAATGSIFDYYAMGWYRQAPGKERELDGTITSGVSTYYADSVKGRFTISRDNAKNTVYLQMISLKPEDTAVYYCARDYAKSQDLYKYDYWGQGTQVTGSS
- polyreactivity (PSR sort gate): low polyreactivity

Sequence: QVQLVESGGGLFQAGGSLRLSCAPSGSIFTTYAMGWYRQAPGKERELVAAITDTCSTNYADSVKGRFTISRDNAKNTVYLQMNSLKPEDTAVYYCAVDLGYEYDWGQGTEVTVSS
- polyreactivity (PSR sort gate): low polyreactivity

Sequence: QVQLVESGGGLFQAGGSLRLSCSASGNTFVPYDMGWYRQAPGKERELVAGITSGGSTYYADSVKGRFTISRDNAKNTVYLQMNSLKPEDTAVYYCAADYYLWVYWYDYWGEGTQVTVSS
- polyreactivity (PSR sort gate): high polyreactivity

Sequence: QVQLVESGGGLFQAGGSLRLSSAASGSTFSYYVMGWYRQAPGKERELVAAIDYSGDSTYYADSVKGRFTLSRDNAKNTVYLQMNSLKPEDTAVYYCAADDYPWNRYEYWGQGTQVTVSS
- polyreactivity (PSR sort gate): low polyreactivity

Sequence: QVQLVESGGGLFQAGGSLRLTCAASGSTFPYHTMGWYRQATGKQRDFVAAITGDGGTTYYADSVKGRFTISRDNAKNTVYLQMNSLKPEDTAVYYCNALYAPYGWFYCLYDYWGPGTQVTVSS
- polyreactivity (PSR sort gate): low polyreactivity

Sequence: QVQLVESGGGLFQAGGSLRVSCAASGSTFYLYAMGWSRQAPGKEREWVAAISRRGGTTNYADSVKGRFTISRDNAKNSVYLQMNSLKPEDTAVYDCGADYQSVGGAEYDYWGQGTQVTVSS
- polyreactivity (PSR sort gate): high polyreactivity

Sequence: QVQLVESGGGLFQAGGSLSLRCAASGSSFDDYTMGWYRQATGKETELLAAISSAGSTNYADSVKGRFTISRDNAKNTVYLQMNILKPEDTAVYSFAAQVHPLRYDYWGQGTQVTVSS
- polyreactivity (PSR sort gate): low polyreactivity

Sequence: QVQLVESGGGLFQAGGSLSLSCAASGFIFSGYAMGWYRQAPGTERELVAAITWSCSNTFYADSVKGRFTISRDNAKITVFLQMNSLKPEDTAVYYCTAVSKYKRSDYYYWGQGTQVTVSS
- polyreactivity (PSR sort gate): high polyreactivity

Sequence: QVQLVESGGGLFQAGGSLSLSCAASGSTFVKYAMGWYRQAPGKERELVATITRRGGNTYYADSVKGRFKISRVNAKNTVYIQLNSLKPEDTEVYYCNRADYRASYSGQGSYDYWGQGTQVTVSS
- polyreactivity (PSR sort gate): high polyreactivity

Sequence: QVQLVESGGGLFQAGGSRRLICSASGFTFASNAMGWYRQAPGKERELVAAITSRGGGTYYADSVKGRFTISRDNAKNTVYLQMNSLKPEDTAVYYCNVVYGVRYFNSRGYYYWGQGTQVTVSS
- polyreactivity (PSR sort gate): high polyreactivity

Sequence: QVQLVESGGGLFQAGRSLRLSSPASGSSFISYAMGWYRQAPGKDRELVAAITSRGGRTYYADSVKGRFTISRDNAKYTVDLQMNCLKPDDTAVYYCAASFSYRIRRYDYWGQGTQVTVSS
- polyreactivity (PSR sort gate): high polyreactivity

Sequence: QVQLVESGGGLFQAGVSLRLSCAASGRTLQIYHMGWYRQAPGKERELVAAISSSGGSTYYADSVKGRFTISRDNAKNTVYVQMNSLKAEDTAVYYCAADPRGYGYTRKGYYWGQGTQVTVSS
- polyreactivity (PSR sort gate): high polyreactivity

Sequence: QVQLVESGGGLFQEGGSLRLSCAASGFTFLVYAKGWYRQAPGKERQLVAAITWSGDSTYYADSVKGRFTISRDNAKNTVYLQMNSLKPEDTAFYYCAAAYRYGTLYYYWGQGTQVTVSS
- polyreactivity (PSR sort gate): low polyreactivity

Sequence: QVQLVESGGGLFQEGGSLRLSCAASGSIFTFYAMGWYRQAPGKERELVAAITSGGSTTYADSVKGRFTISRDNAKNTVYLQMNSLKREDTAVFYCNAESWWGYYYWGQVTQVTVSS
- polyreactivity (PSR sort gate): high polyreactivity

Sequence: QVQLVESGGGLFQEGGSLRLSCAASGSTFANYVMGWYRQAPGKEREFVAGITRSGGSTYYADSVKGRFTISRDNAKNTVYLQMNSLKPEDTAVYYCNKVRRASYYYEYDYWGQVTQVTVSS
- polyreactivity (PSR sort gate): low polyreactivity

Sequence: QVQLVESGGGLFQEGGSLRLSCAPCGLIFFSYAMGWYRQAPGTERELVAAISRLGGRTYYADSVKGRFTISRDNAKNTVYLQMNSLKPEDTAVYYCATRVWTPIFGYEYWGQGTQVTVSS
- polyreactivity (PSR sort gate): low polyreactivity

Sequence: QVQLVESGGGLGHAGGSLRLSCAASGGIYDYYAMGWNRQAPGKERELVTAITRSGSSTFYADSVKGRFTISRDNAKNTVYLQMKSVKPEDTAVYYCAAPYYYFAVYYGYIFEYDYWGQGTQVTVSS
- polyreactivity (PSR sort gate): low polyreactivity

Sequence: QVQLVESGGGLGQAGGSLRLSCAASGFTFDFYAMGWYRQAPGKERELVAAISKNDGTTYYADSVKGRFTISRDNAKNTVYLQMNSLKPEDTAVYYCAAESGYPVYTYVSSGDYWGQGTQVTVSS
- polyreactivity (PSR sort gate): low polyreactivity

Sequence: QVQLVESGGGLGQAGGSLRLSCAASGFTFRKYVMGWYRQAPGKERALVAAITSGGSTNYADSVKGRFTISRDNAKNTVYLQMNSVIPEDTAVYYCATVPGARVHYPTGDYWGQGTQVTVSS
- polyreactivity (PSR sort gate): high polyreactivity

Sequence: QVQLVESGGGLGQAGGSLRLSCAASGIIFLDNAMGWYRQAPGKERELVAAYADSVKGRFTISRDNSNNTVYLQMNSLKPEDTAVYYCNVVLYKYSPTDSWITYDYWGQGTQVTVSS
- polyreactivity (PSR sort gate): low polyreactivity

Sequence: QVQLVESGGGLGQAGGSLRLSCAASGITFRSYAMGWYRQAPGKERELVATISWSGGITYYADSVKGRFTISRDNAKNTVYLQMNSLKPEDTAVYYCAKASQSWGPDDYYYWGQGTQVTVSS
- polyreactivity (PSR sort gate): low polyreactivity

Sequence: QVQLVESGGGLGQAGGSLRLSCAASGITFVVYAMGWYRQAPGKERELVATISSGGSTNYADSVKGRFTISRDNAKNTVYLQMNSLKPEDTAVYYCNRVSVYRSSHLLWGGYWGQGTQVTVSS
- polyreactivity (PSR sort gate): low polyreactivity

Sequence: QVQLVESGGGLGQAGGSLRLSCAASGRIFFGNARGWYRQAPGKEREFVAAISLTGVTTSYADSVKGRFTISRDNAKNTVYLQMNSLKPEDTAVYYCARDYSYYTHAYDYWGQGTQVTVSS
- polyreactivity (PSR sort gate): low polyreactivity

Sequence: QVQLVESGGGLGQAGGSLRLSCAASGRIFYRNAMGWYRQAPGKERELVAAISSSGSTNYADSVKGRFTISRDNAKNTVYLQMNSLKPEDTAVDYCNDVVRWGYGYDYWGQGTQVTVSS
- polyreactivity (PSR sort gate): high polyreactivity

Sequence: QVQLVESGGGLGQAGGSLRLSCAASGRIVSNAMGWYRQAPGKERELVAAISRRGGSTYYADSVKGRFTISRENAKNTVYLQMNSLIPEDTAVYSCASRPFFTYRWYDYWGQGTQVTVSS
- polyreactivity (PSR sort gate): high polyreactivity

Sequence: QVQLVESGGGLGQAGGSLRLSCAASGRTFYYNAMGWYRQAPGKERELVAAITRSGGRTYYADSVKGRFTISRDTAKNTVYLQMNSLKPEDTAVYYCAARWSSYYSSMDYWGQGSQVTVSS
- polyreactivity (PSR sort gate): high polyreactivity

Sequence: QVQLVESGGGLGQAGGSLRLSCAASGRTLGAYAMGWYRQAPGKERELVAAISGSGGSTYYADSVKGRFTISRDNAKNTVYLQMNSLKPEDTAVYYCAAVLSRYGQSISMYYWGQGTQVTVSS
- polyreactivity (PSR sort gate): high polyreactivity

Sequence: QVQLVESGGGLGQAGGSLRLSCAASGSIFGYNVMGWYRQAPGKERELVAGITSGGSTNYADSVKGRFTISRDNAKNTVSLQMNSLKPEDTAVYYCNAEGVFGDGRSGFYWYDYWGEGTQVTVSS
- polyreactivity (PSR sort gate): low polyreactivity

Sequence: QVQLVESGGGLGQAGGSLRLSCAASGSIFSFYAMGWYRQAPGKERELVAVINTDGDNTYYADSVKGRFTISRDNAKNTVYLQMNSLKAEDSAVYYCAASVSSYSYTRGGYWGQGTQVTVSS
- polyreactivity (PSR sort gate): high polyreactivity

Sequence: QVQLVESGGGLGQAGGSLRLSCAASGSIFYYYAMGWYRQAPGKERELVAGINSGDSTYYADSVKGRFTISRDNAKNTVYLQMNRLKPEDTAVYYCAASADGWYEYWGQGTQVTVSS
- polyreactivity (PSR sort gate): low polyreactivity

Sequence: QVQLVESGGGLGQAGGSLRLSCAASGSLITQNALGWYRLAPGKEWELVADISRGSTYSADSVKGRFTISRDNAKNTVYLQLTSLKPEDTALYYSAADDIAHPSFVSTVDVGMDYWGQGPQVTVSS
- polyreactivity (PSR sort gate): low polyreactivity

Sequence: QVQLVESGGGLGQAGGSLRSSCAASGSIICYYAMGWYRQAPGKEWELVATITSGGSTSYADSVKGRFTISRDNAKNTVHLQMNSLKPEDTAVYYCAARNVTKSTYNYWGQGTQVTVSS
- polyreactivity (PSR sort gate): low polyreactivity

Sequence: QVQLVESGGGLGQARGSLRLSRAASGSPFEYNAMGWYRPAPGKERELVASSTNYADSVKGRFTISRDNAKNTVYLQMNSLKPEVTAVNSCAREPGVNRNHDYWGQGSQVTVSS
- polyreactivity (PSR sort gate): low polyreactivity

Sequence: QVQLVESGGGLGQSGGSLRLSCAATGSTYKYNAMGWNRTAPGKERELVPAISRGGRTNYADSVKGRFTISRDNAKNTVYFQMNILKPEDTAVYYCAKDVAGLFHVGSLYYYWGQGTQVNVSS
- polyreactivity (PSR sort gate): low polyreactivity

Sequence: QVQLVESGGGLIQAGGSLRLSCAASGSTFANNAMGWYRQAPGKERELVASITRSGSTYYADSVKGRFTISRDNAKNTVYLQMNSLKPEDTAVYYCAADSRRYGVRFDYWGQGTQVTVSS
- polyreactivity (PSR sort gate): low polyreactivity

Sequence: QVQLVESGGGLLLAGGSLRLSCAASGYTFVYNAMGWYRHAPGKEREFVAAITWSGTSTRYADSVKGRFTISRDNAKNNVYLQMKSLKPEDTAVYYCAARRRSAQSGSYNHWGQGTQVTVSS
- polyreactivity (PSR sort gate): high polyreactivity

Sequence: QVQLVESGGGLLQAGGSHRLSCAASGRIFPAYAMGWYRQAPGKERELVASNRRGGITYADSVKGRFTISRDNAKNTVYLQMNSLKPEDTAVYYCNADYRGWGYHMDYWGQGTQVTVSS
- polyreactivity (PSR sort gate): low polyreactivity
